B1: Serine/threonine-protein kinase Nek2 (Homo sapiens), P51955 (parent)
chain: MPSRAEDYEVLYTIGTGSYGRCQKIRRKSDGKILVWKELDYGSMTEAEKQMLVSEVNLLRELKHPNIVRYYDRIIDRTNTTLYIVMEYCEGGDLASVITKGTKERQYLDEEFVLRVMTQLTLALKECHRRSDGGHTVLHRDLKPANVFLDGKQNVKLGDFGLARILNHDTSFAKTFVGTPYYMSPEQMNRMSYNEKSDIWSLGCLLYELCALMPPFTAFSQKELAGKIREGKFRRIPYRYSDELNEIITRMLNLKDYHRPSVEEILENPLIADLVADEQRRNLERRGRQLGEPEKSQDSSPVLSELKLKEIQLQERERALKAREERLEQKEQELCVRERLAEDKLARAENLLKNYSLLKERKFLSLASNPELLNLPSSVIKKKVHFSGESKENIMRSENSESQLTSKSKCKDLKKRLHAAQLRAQALSDIEKNYQLKSRQILGMR

Variants of: B1
Conditions: with apc4_human ANAPC4, Q9UJX5
Chain of apc4_human ANAPC4, Q9UJX5 (Q9UJX5 whole entry): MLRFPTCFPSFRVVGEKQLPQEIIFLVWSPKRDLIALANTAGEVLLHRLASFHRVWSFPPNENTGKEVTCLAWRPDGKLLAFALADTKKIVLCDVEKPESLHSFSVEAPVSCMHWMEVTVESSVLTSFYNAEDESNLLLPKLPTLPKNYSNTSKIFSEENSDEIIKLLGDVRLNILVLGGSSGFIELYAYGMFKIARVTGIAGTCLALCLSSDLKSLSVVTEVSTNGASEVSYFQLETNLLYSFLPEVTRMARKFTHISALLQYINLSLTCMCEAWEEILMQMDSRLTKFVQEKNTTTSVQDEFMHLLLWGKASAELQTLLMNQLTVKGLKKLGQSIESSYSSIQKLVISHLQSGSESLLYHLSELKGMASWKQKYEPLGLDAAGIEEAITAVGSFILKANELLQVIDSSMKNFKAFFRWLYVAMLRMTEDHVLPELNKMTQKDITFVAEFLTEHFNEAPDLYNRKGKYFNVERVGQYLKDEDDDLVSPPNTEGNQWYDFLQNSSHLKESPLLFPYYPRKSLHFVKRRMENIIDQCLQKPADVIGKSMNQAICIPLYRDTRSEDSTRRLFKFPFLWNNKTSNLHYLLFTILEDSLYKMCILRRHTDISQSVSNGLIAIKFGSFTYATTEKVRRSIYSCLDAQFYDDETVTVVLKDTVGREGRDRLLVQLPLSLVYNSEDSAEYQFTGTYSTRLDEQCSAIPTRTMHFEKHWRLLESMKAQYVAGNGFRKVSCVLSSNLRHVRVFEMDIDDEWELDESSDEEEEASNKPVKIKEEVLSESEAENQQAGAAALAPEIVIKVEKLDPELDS

| Variant | effect of a mutation on the interaction |
| --- | --- |
| MPSRAEDYEVLYTIGTGSYGRCQKIRRKSDGKILVWKELDYGSMTEAEKQMLVSEVNLLRELKHPNIVRYYDRIIDRTNTTLYIVMEYCEGGDLASVITKGTKERQYLDEEFVLRVMTQLTLALKECHRRSDGGHTVLHRDLKPANVFLDGKQNVKLGDFGLARILNHDTSFAKTFVGTPYYMSPEQMNRMSYNEKSDIWSLGCLLYELCALMPPFTAFSQKELAGKIREGKFRRIPYRYSDELNEIITRMLNLKDYHRPSVEEILENPLIADLVADEQRRNLERRGRQLGEPEKSQDSSPVLSELKLKEIQAQERERALKAREERLEQKEQELCVRERLAEDKLARAENLLKNYSLLKERKFLSLASNPELLNLPSSVIKKKVHFSGESKENIMRSENSESQLTSKSKCKDLKKRLHAAQLRAQALSDIEKNYQLKSRQILGMR [L313A] | decreasing interaction |
| MPSRAEDYEVLYTIGTGSYGRCQKIRRKSDGKILVWKELDYGSMTEAEKQMLVSEVNLLRELKHPNIVRYYDRIIDRTNTTLYIVMEYCEGGDLASVITKGTKERQYLDEEFVLRVMTQLTLALKECHRRSDGGHTVLHRDLKPANVFLDGKQNVKLGDFGLARILNHDTSFAKTFVGTPYYMSPEQMNRMSYNEKSDIWSLGCLLYELCALMPPFTAFSQKELAGKIREGKFRRIPYRYSDELNEIITRMLNLKDYHRPSVEEILENPLIADLVADEQRRNLERRGRQLGEPEKSQDSSPVLSELKLKEIQLQERERAAKAREERLEQKEQELCVRERLAEDKLARAENLLKNYSLLKERKFLSLASNPELLNLPSSVIKKKVHFSGESKENIMRSENSESQLTSKSKCKDLKKRLHAAQLRAQALSDIEKNYQLKSRQILGMR [L320A] | decreasing interaction |

Source: IntAct's records for PubMed 23288039
